Data from US6512097.
Several values for one entry are separate records, joined by “and”; a condition that tells them apart may be missing. Identical values can stand only once.

Each binder was assayed against T1, c-erbB-2 ECD with a Ser-Gly-His6 C-terminal fusion (UniProt P04626 23-652) (assay: SPR BIAcore).
T1 construct: extracellular domain; Expressed from CHO cells, IMAC purified; coupled to a CM5 chip, coated on plates, or biotinylated with NHS-LC-biotin; also called c-erbB-2 extracellular domain; biotinylated c-erbB-2 ECD
Experimental: All assays were performed in triplicate. Briefly, […] of radioiodinated sFv was added to 5×10^6 SK-OV cells in the presence of increasing concentrations of unlabeled sFv from the same preparation. After a 30 minute incubation at 20° C., the samples were washed with PBS at 4° C. and centrifuged at 500 g. The amount of labeled sFv bound to the cells was determined by counting the pellets in a gamma counter and the K_a, and K_d were calculated using the EBDA program (V 2.0, G. A. McPherson, 1983). The K_d of all the other isolated sFv were determined using surface plasmon resonance in a BIAcore (Pharmacia). In a BIAcore flow cell, approximately 1400 resonance units (RU) of c-erbB-2 ECD (25 μg/ml in 10 mM sodium acetate, pH 4.5) was coupled to a CM5 sensor chip (Johnsson et al. (1991), supra). Association and dissociation-rates were measured under continuous flow of […] using a concentration range from 50 to 800 nM. Rate constant $kon$ was determined from a plot of (1(dR/dt))/t vs concentration (Karlsson et al. (1991), supra). Rate constant $Hoff$ was determined from the dissociation part of the sensorgram at the highest concentration of sFv analyzed.
Dashes indicate sequence identity. Mutations arising from PCR error and located outside V_H CDR3 are listed under the heading other mutations. F = frequency of isolated scFv. *$koff$ determined from unpurified scFv samples. Underline indicates mutated residue.

Binder | Kd | koff
C6MH3-B9 (scFv, C6ML3-9 sFv, VH CDR3 library B mutant) scFv: QVQLLQSGAELKKPGESLKISCKGSGYSFTSYWIAWVRQMPGKGLEYMGLIYPGDSDTKYSPSFQGQVTISVDKSVSTAYLQWSSLKPSDSAVYFCARHDVGYCKTAACAKWPEYFQHWGQGTLVTVSSGGGGSGGGGSGGGGSQSVLTQPPSVSAAPGQKVTISCSGSSSNIGNNYVSWYQQLPGTAPKLLIYGHTNRPAGVPDRFSGSKSGTSASLAISGFRSEDEADYYCASWDYTLSGWVFGGGTKLTVLG | 0.87 nM | 0.00033 s⁻¹
C6MH3-B5 (scFv, C6ML3-9 sFv, VH CDR3 library B mutant) scFv: QVQLLQSGAELKKPGESLKISCKGSGYSFTSYWIAWVRQMPGKGLEYMGLIYPGDSDTKYSPSFQGQVTISVDKSVSTAYLQWSSLKPSDSAVYFCARHDVGYCTDATCAKWPEYFQHWGQGTLVTVSSGGGGSGGGGSGGGGSQSVLTQPPSVSAAPGQKVTISCSGSSSNIGNNYVSWYQQLPGTAPKLLIYGHTNRPAGVPDRFSGSKSGTSASLAISGFRSEDEADYYCASWDYTLSGWVFGGGTKLTVLG | 0.34 nM | 0.00023 s⁻¹
C6MH3-B11 (scFv, C6ML3-9 sFv, VH CDR3 library B mutant) scFv: QVQLLQSGAELKKPGESLKISCKGSGYSFTSYWIAWVRQMPGKGLEYMGLIYPGDSDTKYSPSFQGQVTISVDKSVSTAYLQWSSLKPSDSAVYFCARHDVGYCSDRSCAKWPEYFQHWGQGTLVTVSSGGGGSGGGGSGGGGSQSVLTQPPSVSAAPGQKVTISCSGSSSNIGNNYVSWYQQLPGTAPKLLIYGHTNRPAGVPDRFSGSKSGTSASLAISGFRSEDEADYYCASWDYTLSGWVFGGGTKLTVLG | 0.22 nM | 0.00023 s⁻¹
C6MH3-B2 (scFv, C6ML3-9 sFv, VH CDR3 library B mutant) scFv: QVQLLQSGAELKKPGESLKISCKGSGYSFTSYWIAWVRQMPGKGLEYMGLIYPGDSDTKYSPSFQGQVTISVDKSVSTAYLQWSSLKPSDSAVYFCARHDVGYCTDPRCAKWPEYFQHWGQGTLVTVSSGGGGSGGGGSGGGGSQSVLTQPPSVSAAPGQKVTISCSGSSSNIGNNYVSWYQQLPGTAPKLLIYGHTNRPAGVPDRFSGSKSGTSASLAISGFRSEDEADYYCASWDYTLSGWVFGGGTKLTVLG | 0.31 nM and 0.58 nM | 0.00031 s⁻¹ and 0.00032 s⁻¹
C6MH3-B15 (scFv, C6ML3-9 sFv, VH CDR3 library B mutant) scFv: QVQLLQSGAELKKPGESLKISCKGSGYSFTSYWIAWVRQMPGKGLEYMGLIYPGDSDTKYSPSFQGQVTISVDKSVSTAYLQWSSLKPSDSAVYFCARHDVGYCESSRCAKWPEYFQHWGQGTLVTVSSGGGGSGGGGSGGGGSQSVLTQPPSVSAAPGQKVTISCSGSSSNIGNNYVSWYQQLPGTAPKLLIYGHTNRPAGVPDRFSGSKSGTSASLAISGFRSEDEADYYCASWDYTLSGWVFGGGTKLTVLG | 0.77 nM | 0.00029 s⁻¹

Molecular target: T1, c-erbB-2 ECD with a Ser-Gly-His6 …
Assay: SPR BIAcore
Remark: another data set of the same source

Binder | Kd [nM] | Kd (mutant)/Kd (C6.5) | koff [s⁻¹] | kon [M⁻¹ s⁻¹]
C6.5F100lA (scFv, C6.5 VH CDR3 scan mutant; Kabat numbering; also called F1001A) scFv: QVQLLQSGAELKKPGESLKISCKGSGYSFTSYWIAWVRQMPGKGLEYMGLIYPGDSDTKYSPSFQGQVTISVDKSVSTAYLQWSSLKPSDSAVYFCARHDVGYCSSSNCAKWPEYAQHWGQGTLVTVSSGGGGSGGGGSGGGGSQSVLTQPPSVSAAPGQKVTISCSGSSSNIGNNYVSWYQQLPGTAPKLLIYGHTNRPAGVPDRFSGSKSGTSASLAISGFRSEDEADYYCAAWDDSLSGWVFGGGTKLTVLG | 454 | 28.4 | 0.05 | 110000
C6.5Y99A (scFv, C6.5 VH CDR3 scan mutant; Kabat numbering) scFv: QVQLLQSGAELKKPGESLKISCKGSGYSFTSYWIAWVRQMPGKGLEYMGLIYPGDSDTKYSPSFQGQVTISVDKSVSTAYLQWSSLKPSDSAVYFCARHDVGACSSSNCAKWPEYFQHWGQGTLVTVSSGGGGSGGGGSGGGGSQSVLTQPPSVSAAPGQKVTISCSGSSSNIGNNYVSWYQQLPGTAPKLLIYGHTNRPAGVPDRFSGSKSGTSASLAISGFRSEDEADYYCAAWDDSLSGWVFGGGTKLTVLG | 59 | 3.7 | 0.053 | 900000
C6.5S100cA (scFv, C6.5 VH CDR3 scan mutant; Kabat numbering) scFv: QVQLLQSGAELKKPGESLKISCKGSGYSFTSYWIAWVRQMPGKGLEYMGLIYPGDSDTKYSPSFQGQVTISVDKSVSTAYLQWSSLKPSDSAVYFCARHDVGYCSSANCAKWPEYFQHWGQGTLVTVSSGGGGSGGGGSGGGGSQSVLTQPPSVSAAPGQKVTISCSGSSSNIGNNYVSWYQQLPGTAPKLLIYGHTNRPAGVPDRFSGSKSGTSASLAISGFRSEDEADYYCAAWDDSLSGWVFGGGTKLTVLG | 24 | 1.5 | 0.011 | 450000
C6.5S100aA (scFv, C6.5 VH CDR3 scan mutant; Kabat numbering) scFv: QVQLLQSGAELKKPGESLKISCKGSGYSFTSYWIAWVRQMPGKGLEYMGLIYPGDSDTKYSPSFQGQVTISVDKSVSTAYLQWSSLKPSDSAVYFCARHDVGYCASSNCAKWPEYFQHWGQGTLVTVSSGGGGSGGGGSGGGGSQSVLTQPPSVSAAPGQKVTISCSGSSSNIGNNYVSWYQQLPGTAPKLLIYGHTNRPAGVPDRFSGSKSGTSASLAISGFRSEDEADYYCAAWDDSLSGWVFGGGTKLTVLG | 28 | 1.8 | 0.013 | 470000
C6.5N100dA (scFv, C6.5 VH CDR3 scan mutant; Kabat numbering) scFv: QVQLLQSGAELKKPGESLKISCKGSGYSFTSYWIAWVRQMPGKGLEYMGLIYPGDSDTKYSPSFQGQVTISVDKSVSTAYLQWSSLKPSDSAVYFCARHDVGYCSSSACAKWPEYFQHWGQGTLVTVSSGGGGSGGGGSGGGGSQSVLTQPPSVSAAPGQKVTISCSGSSSNIGNNYVSWYQQLPGTAPKLLIYGHTNRPAGVPDRFSGSKSGTSASLAISGFRSEDEADYYCAAWDDSLSGWVFGGGTKLTVLG | 29 | 1.8 | 0.012 | 410000
C6.5S100bA (scFv, C6.5 VH CDR3 scan mutant; Kabat numbering) scFv: QVQLLQSGAELKKPGESLKISCKGSGYSFTSYWIAWVRQMPGKGLEYMGLIYPGDSDTKYSPSFQGQVTISVDKSVSTAYLQWSSLKPSDSAVYFCARHDVGYCSASNCAKWPEYFQHWGQGTLVTVSSGGGGSGGGGSGGGGSQSVLTQPPSVSAAPGQKVTISCSGSSSNIGNNYVSWYQQLPGTAPKLLIYGHTNRPAGVPDRFSGSKSGTSASLAISGFRSEDEADYYCAAWDDSLSGWVFGGGTKLTVLG | 47 | 2.9 | 0.016 | 340000
C6.5H102A (scFv, C6.5 VH CDR3 scan mutant; Kabat numbering) scFv: QVQLLQSGAELKKPGESLKISCKGSGYSFTSYWIAWVRQMPGKGLEYMGLIYPGDSDTKYSPSFQGQVTISVDKSVSTAYLQWSSLKPSDSAVYFCARHDVGYCSSSNCAKWPEYFQAWGQGTLVTVSSGGGGSGGGGSGGGGSQSVLTQPPSVSAAPGQKVTISCSGSSSNIGNNYVSWYQQLPGTAPKLLIYGHTNRPAGVPDRFSGSKSGTSASLAISGFRSEDEADYYCAAWDDSLSGWVFGGGTKLTVLG | 19 | 1.2 | 0.011 | 590000
C6.5K100gA (scFv, C6.5 VH CDR3 scan mutant; Kabat numbering) scFv: QVQLLQSGAELKKPGESLKISCKGSGYSFTSYWIAWVRQMPGKGLEYMGLIYPGDSDTKYSPSFQGQVTISVDKSVSTAYLQWSSLKPSDSAVYFCARHDVGYCSSSNCAAWPEYFQHWGQGTLVTVSSGGGGSGGGGSGGGGSQSVLTQPPSVSAAPGQKVTISCSGSSSNIGNNYVSWYQQLPGTAPKLLIYGHTNRPAGVPDRFSGSKSGTSASLAISGFRSEDEADYYCAAWDDSLSGWVFGGGTKLTVLG | 9.8 | 0.6 | 0.0042 | 430000
C6.5Q101A (scFv, C6.5 VH CDR3 scan mutant; Kabat numbering) scFv: QVQLLQSGAELKKPGESLKISCKGSGYSFTSYWIAWVRQMPGKGLEYMGLIYPGDSDTKYSPSFQGQVTISVDKSVSTAYLQWSSLKPSDSAVYFCARHDVGYCSSSNCAKWPEYFAHWGQGTLVTVSSGGGGSGGGGSGGGGSQSVLTQPPSVSAAPGQKVTISCSGSSSNIGNNYVSWYQQLPGTAPKLLIYGHTNRPAGVPDRFSGSKSGTSASLAISGFRSEDEADYYCAAWDDSLSGWVFGGGTKLTVLG | 8.2 | 0.5 | 0.0098 | 1.2e+06
C6.5V97A (scFv, C6.5 VH CDR3 scan mutant; Kabat numbering) scFv: QVQLLQSGAELKKPGESLKISCKGSGYSFTSYWIAWVRQMPGKGLEYMGLIYPGDSDTKYSPSFQGQVTISVDKSVSTAYLQWSSLKPSDSAVYFCARHDAGYCSSSNCAKWPEYFQHWGQGTLVTVSSGGGGSGGGGSGGGGSQSVLTQPPSVSAAPGQKVTISCSGSSSNIGNNYVSWYQQLPGTAPKLLIYGHTNRPAGVPDRFSGSKSGTSASLAISGFRSEDEADYYCAAWDDSLSGWVFGGGTKLTVLG | 48 | 3 | 0.015 | 310000
C6.5P100iA (scFv, C6.5 VH CDR3 scan mutant; Kabat numbering) scFv: QVQLLQSGAELKKPGESLKISCKGSGYSFTSYWIAWVRQMPGKGLEYMGLIYPGDSDTKYSPSFQGQVTISVDKSVSTAYLQWSSLKPSDSAVYFCARHDVGYCSSSNCAKWAEYFQHWGQGTLVTVSSGGGGSGGGGSGGGGSQSVLTQPPSVSAAPGQKVTISCSGSSSNIGNNYVSWYQQLPGTAPKLLIYGHTNRPAGVPDRFSGSKSGTSASLAISGFRSEDEADYYCAAWDDSLSGWVFGGGTKLTVLG | 10 | 0.6 | 0.011 | 1.05e+06
